Where two headings read alike, the source gives them in different places.
Columns and labels:
Experiment in all cases: EMSA
PARP1 [1] = target: T1, PARP1 (Homo sapiens, UniProt P09874 1-1014)
PARP1 [2] = target: T1, PARP1; remark: listed apart in the source
PARP1 [3] = target: T1, PARP1; remark: listed apart in the source
PARP1 [4] = target: T1, PARP1; remark: listed apart in the source

T1 sequence (P09874 whole entry): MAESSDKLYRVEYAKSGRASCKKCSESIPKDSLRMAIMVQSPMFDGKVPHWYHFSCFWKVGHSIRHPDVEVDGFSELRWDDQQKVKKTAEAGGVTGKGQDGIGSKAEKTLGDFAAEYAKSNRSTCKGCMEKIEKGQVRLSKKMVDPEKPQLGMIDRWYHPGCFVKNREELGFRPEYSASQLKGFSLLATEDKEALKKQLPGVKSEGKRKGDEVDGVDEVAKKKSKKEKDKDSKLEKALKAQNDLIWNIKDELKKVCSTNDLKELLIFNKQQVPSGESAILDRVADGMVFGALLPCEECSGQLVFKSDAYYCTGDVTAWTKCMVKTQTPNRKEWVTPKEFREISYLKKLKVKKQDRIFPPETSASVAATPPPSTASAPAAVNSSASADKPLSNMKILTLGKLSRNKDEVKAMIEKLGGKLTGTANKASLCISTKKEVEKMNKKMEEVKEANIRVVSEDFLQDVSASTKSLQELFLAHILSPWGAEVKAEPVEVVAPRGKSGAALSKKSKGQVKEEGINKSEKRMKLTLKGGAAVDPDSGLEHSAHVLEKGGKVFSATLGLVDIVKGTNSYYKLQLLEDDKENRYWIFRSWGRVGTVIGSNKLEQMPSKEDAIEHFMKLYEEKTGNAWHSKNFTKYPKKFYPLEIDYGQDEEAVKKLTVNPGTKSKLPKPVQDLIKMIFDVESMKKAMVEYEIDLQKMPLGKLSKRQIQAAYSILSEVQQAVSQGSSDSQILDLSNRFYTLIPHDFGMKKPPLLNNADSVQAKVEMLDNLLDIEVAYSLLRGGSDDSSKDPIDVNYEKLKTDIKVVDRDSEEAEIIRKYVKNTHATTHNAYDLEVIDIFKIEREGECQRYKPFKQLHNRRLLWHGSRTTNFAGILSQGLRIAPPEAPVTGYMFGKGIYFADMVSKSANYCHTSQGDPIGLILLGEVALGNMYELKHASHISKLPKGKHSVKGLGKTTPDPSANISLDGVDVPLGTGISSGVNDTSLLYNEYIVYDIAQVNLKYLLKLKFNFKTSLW

B1: ssRNA JYM3704 (ssRNA)
RNA: AAAGAUGUCCUAGCAAGGCAC
B1: no binding (PARP1 [1]).

B2: ssDNA JYM3702 (ssDNA)
DNA: GGGTGAACCTGCAGGTGGGCGGCTGCTCATCGTAGGTTAGTTGGTAGAATTCGGCAGCGTC
B2: binds (PARP1 [2]).

B3: D-loop (JYM3702 + JYM3703 + JYM3705) (structured_DNA)
DNA 1: GGGTGAACCTGCAGGTGGGCGGCTGCTCATCGTAGGTTAGTTGGTAGAATTCGGCAGCGTC
DNA 2: GACGCTGCCGAATTCTACCAGTGCCTTGCTAGGACATCTTTGCCCACCTGCAGGTTCACCC
DNA 3: AAAGATGTCCTAGCAAGGCAC
B3: binds (PARP1 [3]).

B4: R-loop (JYM3702 + JYM3703 + JYM3704) (mixed)
DNA 1: GGGTGAACCTGCAGGTGGGCGGCTGCTCATCGTAGGTTAGTTGGTAGAATTCGGCAGCGTC
DNA 2: GACGCTGCCGAATTCTACCAGTGCCTTGCTAGGACATCTTTGCCCACCTGCAGGTTCACCC
RNA: AAAGAUGUCCUAGCAAGGCAC
modifications: RNA strand 3
B4: binds (PARP1 [4]).

Reference: article PMC10018367
